The values that follow come from the supplement of paper PMC10567573.

B1: TSN (parent)
chain: AFVVYLETETLVTREAVTEILGIE
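Further: lentivirally expressed fusions sorted by FACS into six bins by GFP to DsRed ratio, PSI derived from sequencing read proportions per bin multiplied by bin number.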

The variants in this series derive from B1. As to the kind of experiment: protein stability index of a GFP-peptide fusion (GPS, HEK-293T) (PSI 1-6); higher = more stable. The conditions noted are these: c terminus: a fixed tail appended.
As to AFVVYLATETLVTREAVTEILGIE [E7A], the protein stability index came out at 3.23.
For GFVVYLETETLVTREAVTEILGIE [A1G], the protein stability index came out at 3.71.
Regarding CFVVYLETETLVTREAVTEILGIE [A1C], the protein stability index stood at 2.64.
For the variant IFVVYLETETLVTREAVTEILGIE [A1I], the protein stability index came out at 3.49.
For the variant DFVVYLETETLVTREAVTEILGIE [A1D], the protein stability index is 1.74.
On to QFVVYLETETLVTREAVTEILGIE [A1Q], for which the protein stability index came out at 2.11.
To FFVVYLETETLVTREAVTEILGIE [A1F] belongs 3.77; to TFVVYLETETLVTREAVTEILGIE [A1T], 2.55.
To PFVVYLETETLVTREAVTEILGIE [A1P] belongs 2.44; to WFVVYLETETLVTREAVTEILGIE [A1W], 2.42; to LFVVYLETETLVTREAVTEILGIE [A1L], 3.38.
For EFVVYLETETLVTREAVTEILGIE [A1E], the protein stability index is 3.39.
To HFVVYLETETLVTREAVTEILGIE [A1H] belongs 2.54; to NFVVYLETETLVTREAVTEILGIE [A1N], 3.19.
With SFVVYLETETLVTREAVTEILGIE [A1S], the protein stability index stood at 2.71.
As for RFVVYLETETLVTREAVTEILGIE [A1R], the figure is 4.12; as for MFVVYLETETLVTREAVTEILGIE [A1M], 2.61; as for KFVVYLETETLVTREAVTEILGIE [A1K], 2.54.
For the variant AFVVTLETETLVTREAVTEILGIE [Y5T], the protein stability index was determined as 3.32.
On to AFVVGLETETLVTREAVTEILGIE [Y5G], for which the protein stability index is 2.5.
To AFVVSLETETLVTREAVTEILGIE [Y5S] belongs 1.77; to AFVVKLETETLVTREAVTEILGIE [Y5K], 1.14.
Turning to AFVVVLETETLVTREAVTEILGIE [Y5V], the protein stability index came to 3.44.
To AFVVHLETETLVTREAVTEILGIE [Y5H] belongs 1.59; to AFVVALETETLVTREAVTEILGIE [Y5A], 2.
To AFVVLLETETLVTREAVTEILGIE [Y5L] belongs 2.45; to AFVVPLETETLVTREAVTEILGIE [Y5P], 2.87.
As for AFVVNLETETLVTREAVTEILGIE [Y5N], the protein stability index is 2.13.
On to AFVVFLETETLVTREAVTEILGIE [Y5F], for which the protein stability index is 1.99.
As for AFVVDLETETLVTREAVTEILGIE [Y5D], the figure is 2.68; as for AFVVQLETETLVTREAVTEILGIE [Y5Q], 1.91.
As for AFVVELETETLVTREAVTEILGIE [Y5E], the figure is 2.73; as for AFVVCLETETLVTREAVTEILGIE [Y5C], 2.94.
To AFVVRLETETLVTREAVTEILGIE [Y5R] belongs 2.97; to AFVVILETETLVTREAVTEILGIE [Y5I], 4.04.
Turning to AFVVYTETETLVTREAVTEILGIE [L6T], the protein stability index amounted to 2.05.
For AFVVYVETETLVTREAVTEILGIE [L6V], the protein stability index is 4.67.
Take AFVVYAETETLVTREAVTEILGIE [L6A]: the protein stability index amounted to 1.34.
As for AFVVYEETETLVTREAVTEILGIE [L6E], the figure is 2.25.
To AFVVYSETETLVTREAVTEILGIE [L6S] belongs 1.83.
As for AFVVYKETETLVTREAVTEILGIE [L6K], the figure is 2.03; as for AFVVYQETETLVTREAVTEILGIE [L6Q], 1.84.
For AFVVYCETETLVTREAVTEILGIE [L6C], the protein stability index is 2.38.
On to AFVVYIETETLVTREAVTEILGIE [L6I], for which the protein stability index was 3.08.
As to AFVVYRETETLVTREAVTEILGIE [L6R], the protein stability index was 1.24.
To AFVVYHETETLVTREAVTEILGIE [L6H] belongs 1.37.
As for AFVVYDETETLVTREAVTEILGIE [L6D], the protein stability index worked out at 2.
Consider AFVVYPETETLVTREAVTEILGIE [L6P], for which the protein stability index is 1.85.
To AFVVYFETETLVTREAVTEILGIE [L6F] belongs 3.12.
To AFVVYGETETLVTREAVTEILGIE [L6G] belongs 1.77.
To AFVVYYETETLVTREAVTEILGIE [L6Y] belongs 2.2; to AFVVYNETETLVTREAVTEILGIE [L6N], 2.69; to AFVQYLETETLVTREAVTEILGIE [V4Q], 1.36.
AFVHYLETETLVTREAVTEILGIE [V4H]: the protein stability index worked out at 2.19.
To AFVTYLETETLVTREAVTEILGIE [V4T] belongs 1.13; to AFVPYLETETLVTREAVTEILGIE [V4P], 2.66.
As for AFVAYLETETLVTREAVTEILGIE [V4A], the protein stability index amounted to 2.54.
In the case of AFVRYLETETLVTREAVTEILGIE [V4R], the protein stability index was 1.45.
As for AFVCYLETETLVTREAVTEILGIE [V4C], the figure is 2.2; as for AFVDYLETETLVTREAVTEILGIE [V4D], 2.41; as for AFVEYLETETLVTREAVTEILGIE [V4E], 2.07.
Turning to AFVWYLETETLVTREAVTEILGIE [V4W], the protein stability index is 2.92.
On to AFVNYLETETLVTREAVTEILGIE [V4N], for which the protein stability index was determined as 2.09.
As for AFVSYLETETLVTREAVTEILGIE [V4S], the figure is 1.57; as for AFVLYLETETLVTREAVTEILGIE [V4L], 2.21.
To AFVYYLETETLVTREAVTEILGIE [V4Y] belongs 2.61.
Take AFVKYLETETLVTREAVTEILGIE [V4K]: the protein stability index amounted to 1.56.
As for AFVGYLETETLVTREAVTEILGIE [V4G], the figure is 2.53.
To ARVVYLETETLVTREAVTEILGIE [F2R] belongs 1.72.
To ADVVYLETETLVTREAVTEILGIE [F2D] belongs 3.68; to AYVVYLETETLVTREAVTEILGIE [F2Y], 2.83; to AGVVYLETETLVTREAVTEILGIE [F2G], 1.88.
For the variant AWVVYLETETLVTREAVTEILGIE [F2W], the protein stability index came out at 1.84.
To AKVVYLETETLVTREAVTEILGIE [F2K] belongs 1.78; to AEVVYLETETLVTREAVTEILGIE [F2E], 2.49.
Regarding ASVVYLETETLVTREAVTEILGIE [F2S], the protein stability index is 2.36.
For the variant AHVVYLETETLVTREAVTEILGIE [F2H], the protein stability index worked out at 1.48.
To AMVVYLETETLVTREAVTEILGIE [F2M] belongs 2.88; to AAVVYLETETLVTREAVTEILGIE [F2A], 1.97; to AVVVYLETETLVTREAVTEILGIE [F2V], 1.
As for AIVVYLETETLVTREAVTEILGIE [F2I], the figure is 2.72; as for ANVVYLETETLVTREAVTEILGIE [F2N], 2.45.
On to AQVVYLETETLVTREAVTEILGIE [F2Q], for which the protein stability index came to 1.86.
With ATVVYLETETLVTREAVTEILGIE [F2T], the protein stability index was found to be 2.74.
As to APVVYLETETLVTREAVTEILGIE [F2P], the protein stability index came to 3.41.
As for ALVVYLETETLVTREAVTEILGIE [F2L], the figure is 2.25.
For the variant AFDVYLETETLVTREAVTEILGIE [V3D], the protein stability index came to 2.37.
Regarding AFGVYLETETLVTREAVTEILGIE [V3G], the protein stability index turned out to be 1.67.
To AFMVYLETETLVTREAVTEILGIE [V3M] belongs 1.97.
Regarding AFEVYLETETLVTREAVTEILGIE [V3E], the protein stability index amounted to 1.9.
As for AFQVYLETETLVTREAVTEILGIE [V3Q], the figure is 2.75.
As for AFRVYLETETLVTREAVTEILGIE [V3R], the figure is 1.34; as for AFLVYLETETLVTREAVTEILGIE [V3L], 2.35; as for AFKVYLETETLVTREAVTEILGIE [V3K], 1.81.
